Assay results published in a protein production outcome set (Wang et al. 2014).

Assay: label from the status in PepcDB records
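Note: failed if final PepcDB status was selected cloned or expressed and not failed if soluble or beyond.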

Row | Sequence | protein production
1 | MAFPQRKRTPSFSSSVLDSVYRSIDESDGLQSDLKGSINENVSSSSSSPSPNKKDDKLTTLRRAIMDEEHWLYARSSTTTTNSSDSSSFSSSEAESYRTKRRLRKLAEQGKRSGDERQRTKRTVMDNDSRLFSKSDDDKKPKAVKIIEELKRSKQPVSPGARLTSFLNSIFQSNAKKVKLCSVGKTTDVKSSSSKSCFSRTRNKTDNNNNNCKKLERSIRFYPVRVTIDGDCRDYAQKHITRVRKPIPEFTAKKSVKEEIKTNDHHTEFTCITRNIGLKDFVRSNKYEGKEEEEDAWSHSSSDLFELDSYRIGMGRYLKELPVYETTDFKTNQAIARSLLL | failed
2 | MRKLNNHDVHKRYQDRLEEDVEFTINYELPLSCLWSTIKDFSSDFEEKTEAFFILFKELLRRGHLKLQRDGQIIGHTPEEWEQIFREVWPEYEIEPNPLPGYAPFDIGMWLTVEAPAYAVWIDPEDGSEYWAG | not failed
3 | MLFSLKYLGMTLVEQPKGEELSAAAIKRIVATAKASGKKLQKVTLKVSPRGIILTDNLTNQLIENVSIYRISYCTADKMHDKVFAYIAQSQHNQSLECHAFLCTKRKMAQAVTLTVAQAFKVAFEFWQVSKEEKEKRDKASQEGGDVLGARQDCTPPLKSLVATGNLLDLEETAKAPLSTVSANTTNMDEVPRPQALSGSSVVWELDDGLDEAFSRLAQSRTNPQVLDTGLTAQDMHYAQCLSPVDWDKPDSSGTEQDDLFSF | failed
4 | MRRRKAPVREVLGDPVYGNKVVTKFINKMMFDGKKSVAEKIIYKAFNKIEEKSGEKGIEVFEKALERVRPLVEVRSRRVGGATYQVPVEVRASRQQSLSIRWILEATRKRNERMMVDRLANELMDAASDKGAAFKKKEDVHKMAEANKAFAHYRW | failed
5 | MDEGMQIVGAVSGLSTPFNQNVSLECYNGILSMLLNGAPLADILHALVLKIEDQRLGTHASVLLLSEDGKRVLTGAAPHLPDSYNQVIHGVEIGPEVGSCGTAAYTGQRVIVEDIEHHPYWALYKSFALVHGLRACWSEPIKDTQGKVLGTFAMYYKEIKSPTVADLTLIAEAARLASLAIERSRSLEFQRLAVKIFDRLPLALVITNASHSVLYANDAFKLMVCLQPDDILAFNPEQFFSPSEPHEIASLFNHLSEGKMWQGELVGLRNNGETFYLDLTVTVFRESHSADLGFAWLFSDVSERKKAAQLIKYQANNDSLTGLANRNALFRQIQELINADSLTPGFSFMLMDLDNFKQVNDTYGHDKGDVLLVQMVEQVKICLDPQAVFARLGGDEFAILLPGVVTQRELSQLADKINKQVYRRYELSHDKGVYSSVSIGIARFPEDALDLEQLLNCADQAMYISKANGRNRYHFFTEQMQQNAERIANLHTLLKQALEQNAFELYFQPIVDATTGLIVRAEVLLRWQHEGQFISPDEFIPIAENSGLIVSIGRCVRQAVMQTIVEMQALGWPMSLAINVSTFEFWSHELQDEFCDSFTDIIEGLGVEDFPYELITLEITESLLMKKHAHLIQVLNELRARGIKISLDDFGTGYSSLSYLANFPIDQIKIDKSFIDRLAEGERHLALIEAIVRLSHALNLRVTAEGVETQEQLQVMMDNHIQEIQGYLFYKPIPKAVFFELLAKQAVISPHSLEHHHHHH | failed
6 | MNYNSIPTEIIDTILAELKIGLTLVNNTGKIIYFNQLAGELLGWDNKLPENTILSCHKKENQPKVIEKLNQPAAMEWHKVIKTQNRFIENAYSPINIPDKFMGAMILTKDVTAREESLEKLKKNAETDALTGLYNRNLFHTVIQSYITESKPYGLIMLDISGLKYINDHFGHEEGDRILKEAAEAIRSSIRDTDFAFRFGGDEFLILTSYQEAVLKTIANRIRSKNKIPTENTPAVLNLSLGYATSLEEKNMEAVLSSADQRMYRDKQLFYLGDGKYFKQ | failed
7 | MGEKELIRVGVVGTGYMGENHVRIYSEMEDVRLIGISDPNSSRVKELAARYETLPFSDHKKMFGKTNLDAISIAAPTTLHCPIVLDALEAGVDVLVEKPIADSVENATAMIESAEEMDRHLMVGHIERFNPAVLKLKEVVDSGVLGKIVSV | failed
8 | MDWTMISGSRDESLHAARDYWRRLNESECFDIEGIEAPPGAIALIPYDCQLPNSFHPLPLWVKLYASAGLHRFNMLEVLVNERSVGKLNIIVPIARPKGVTTNERFIPCDCFSVDDKLPQWPSHDSFNDRKRFYSVKESELQNNDWINLYLELVLCAIQKVRISDSDLSKLKIVKAVIETKEDMVPPNERLNAKTAVVYITFKGLANARIAAGEHYERKAIIRRIFNEHTGHLSLLGDLIGEKKFVNIDPVTYFNSPAYLEDITHELPPESPWMDILAGTGSMDQID | failed
